Measured values published in patent US20170174769A1 (Regeneron, published 2017).

T1: full-length human KLB on HEK293/hKLB/SRE-luc cells (human, UniProt Q86Z14 1-1044)
T1 construct: amino acids 1-1044 of NP_783864.1
T1 sequence: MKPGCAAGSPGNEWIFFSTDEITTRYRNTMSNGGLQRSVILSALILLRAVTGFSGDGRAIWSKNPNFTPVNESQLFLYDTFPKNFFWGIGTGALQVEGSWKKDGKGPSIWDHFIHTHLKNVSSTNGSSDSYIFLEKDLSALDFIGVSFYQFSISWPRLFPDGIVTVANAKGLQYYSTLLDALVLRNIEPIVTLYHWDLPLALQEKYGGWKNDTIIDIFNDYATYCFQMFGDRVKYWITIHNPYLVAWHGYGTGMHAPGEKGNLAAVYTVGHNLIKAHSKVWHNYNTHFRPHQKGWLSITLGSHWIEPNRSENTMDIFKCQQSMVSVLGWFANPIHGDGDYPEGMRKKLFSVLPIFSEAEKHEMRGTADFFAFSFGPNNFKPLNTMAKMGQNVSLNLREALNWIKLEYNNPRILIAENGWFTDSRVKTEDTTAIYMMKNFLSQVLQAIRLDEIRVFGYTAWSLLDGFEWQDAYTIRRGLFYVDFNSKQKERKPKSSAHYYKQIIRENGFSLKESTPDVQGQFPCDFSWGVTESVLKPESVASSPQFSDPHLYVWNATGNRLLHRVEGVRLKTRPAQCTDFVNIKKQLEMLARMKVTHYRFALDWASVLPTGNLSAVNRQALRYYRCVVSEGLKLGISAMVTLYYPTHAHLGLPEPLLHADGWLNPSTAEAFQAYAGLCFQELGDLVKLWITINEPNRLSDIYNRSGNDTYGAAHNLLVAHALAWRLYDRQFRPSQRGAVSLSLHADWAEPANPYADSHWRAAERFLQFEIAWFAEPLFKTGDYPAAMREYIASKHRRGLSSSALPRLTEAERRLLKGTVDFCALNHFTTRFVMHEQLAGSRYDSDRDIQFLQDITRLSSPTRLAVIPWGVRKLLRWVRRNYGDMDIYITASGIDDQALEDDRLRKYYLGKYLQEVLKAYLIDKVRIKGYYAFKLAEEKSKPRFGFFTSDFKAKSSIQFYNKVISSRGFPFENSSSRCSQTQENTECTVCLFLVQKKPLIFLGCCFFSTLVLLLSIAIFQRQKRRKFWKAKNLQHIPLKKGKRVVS


What was measured:
Experiment in all cases: FACS on stable HEK293 cells
[1] = target: T1, full-length human KLB on …
Method: (§1) To determine binding specificity of the monoclonal anti-KLB/FGFR1c antibodies, the antibodies were tested in a fluorescence-activated cell sorting (FACS) binding assay to cell lines expressing human FGFR1c, human KLB, and both human FGFR1c and human KLB. HEK293 cell lines were generated that stably express full-length human FGFR1c (hFGFR1c; SEQ ID NO:433) or full-length human KLB (hKLB; SEQ ID NO:434) or both human FGFR1c and human KLB, along with a luciferase reporter [SRE (serum response element)-luciferase, SA Bioscience, #CLS-010L]. The resulting cell lines, referred to as HEK293/hFGFR1c/SRE-luc, HEK293/hKLB/SRE-luc, and HEK293/hKLB/hFGFR1c/SRE-luc, respectively, were maintained in DMEM supplemented with 10% FBS, NEAA, penicillin/streptomycin, 1 μg/mL puromycin and […] hygromycin B, 1 μg/mL puromycin and 500 μg/mL G418, or all three antibiotics.
(§2) For the FACS analysis, HEK293 parental, HEK293/hFGFR1c/SRE-luc, HEK293/hKLB/SRE-luc, and HEK293/hKLB/hFGFR1c/SRE-luc cells were dissociated and plated onto 96-well v-bottom plates at 5 x 10⁵ cells/well in PBS containing 1% FBS. […] Cells were filtered and subsequently analyzed on a Hypercyte Flow Cytometer (Intellicyt Corp.). Unstained and secondary antibody alone controls were also tested for binding to all cell lines. The results were analyzed using FlowJo version 9.52 software and geometric mean (Geom. Mean) of fluorescence for viable cells was determined. Geom. mean of fluorescence for each antibody was then normalized to Geom. mean of unstained cells to obtain relative binding of antibody (binding ratios) per each cell type.

[2] = target: T2, human KLB and human FGFR1c co-expressed on HEK293/hKLB/hFGFR1c/SRE-luc cells (human, UniProt Q86Z14 1-1044; P11362 22-822)
T2 construct: two receptors co-expressed on one cell line; also called KLB/FGFR1c coreceptor; FGF21R
Method: as §1, §2

[3] = target: T3, full-length human FGFR1c on HEK293/hFGFR1c/SRE-luc cells (human, UniProt P11362 22-822)
T3 construct: amino acids 1-733 of NP_075593
T3 sequence (P11362 other isoform, or with tags, fused parts or gaps limits assumed): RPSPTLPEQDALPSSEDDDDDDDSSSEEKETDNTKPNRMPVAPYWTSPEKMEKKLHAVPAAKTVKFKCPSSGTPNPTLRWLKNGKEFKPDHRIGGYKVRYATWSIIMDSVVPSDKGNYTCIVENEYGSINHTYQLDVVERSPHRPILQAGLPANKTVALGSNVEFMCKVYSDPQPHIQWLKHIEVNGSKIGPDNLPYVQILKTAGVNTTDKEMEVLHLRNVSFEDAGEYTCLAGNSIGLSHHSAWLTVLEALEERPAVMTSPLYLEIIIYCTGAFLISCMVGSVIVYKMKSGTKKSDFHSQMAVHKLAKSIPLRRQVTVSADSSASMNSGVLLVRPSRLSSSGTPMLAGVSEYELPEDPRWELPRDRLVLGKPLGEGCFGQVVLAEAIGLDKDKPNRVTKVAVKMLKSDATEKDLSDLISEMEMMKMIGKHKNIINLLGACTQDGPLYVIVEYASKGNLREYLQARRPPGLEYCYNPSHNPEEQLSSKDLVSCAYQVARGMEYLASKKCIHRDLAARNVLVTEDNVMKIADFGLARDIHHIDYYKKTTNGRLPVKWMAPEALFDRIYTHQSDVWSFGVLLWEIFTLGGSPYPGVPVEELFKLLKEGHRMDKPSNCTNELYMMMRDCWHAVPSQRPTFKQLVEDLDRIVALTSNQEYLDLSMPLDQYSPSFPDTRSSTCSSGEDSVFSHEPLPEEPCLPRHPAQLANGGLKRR
Method: as §1, §2

Row | Binder | binding ratio to unstained cells [1] [fold] | binding ratio to unstained cells [2] [fold] | binding ratio to unstained cells [3] [fold]
1 | H1H8899P (antibody, V domains shown) VH: EVQLVESGGGLVQPGGSLRLSCAASGFTFSSHWMSWVRQAPGKGLEWVANIKQDGSEKYYVDSVKGRFTISRDNAKNSLYLQISSLRAEDTAVYYCASNWNFLFDFWGQGTLVTVSS VL: not shown | 3 | 4 | 5
2 | H4H8859P (antibody, V domains shown, human IgG4 Fc (H4H prefix)) VH: EVQLVESGGSVVRPGGSLRLSCAASGFTFDVYGMSWVRQAPGKGLEWVSGINWIGGSTGYADSVKGRFTISRDNAKNSLYLQMNSLRAEDTALYYCTREEDYWGQGTLVTVSS VL: DVVMTQSPLSLAVTLGQPASISCRSSQSLVYSDGNTYLNWFQQRPGQSPRRLFYKVSNRDSGVPDRFSGSGSGTDFTLKISRVEAEDVGIYYCMQGIKWPLTFGGGTKVEIK | 5 | 4 | 5
3 | H1H8898P (antibody, V domains shown, H1H Fc prefix (human Fc)) VH: QVQLVESGGGLVKPGGSLRLSCAASGFIFSDYYMSWIRQAPGKGLDWISYISPSGSTIYYADSVKGRFTISRDNAKNSLYLQMNSLRADDTAVYYCARTGIQLWSVYFDYWGQGTLVTVSS VL: EIVMTQSPATLSVSPGERATLSCRASQSVGSNLAWYQQKPGQAPRLLIYGASTRANGIPARFSGSGSGTEFTLTISGLQSEDFAVYYCQQYNNWPTFGQGTKLEIK | 1 | 8 | 1

The next lines start with the values.

Row | binding ratio to unstained cells [1] [fold] | binding ratio to unstained cells [2] [fold] | binding ratio to unstained cells [3] [fold] | Binder
4 | 11 | 23 | 1 | H2aM8098N (antibody, V domains shown, mouse IgG2 Fc (H2aM prefix)) VH: QLQLQESGPGLVKPSETLSLTCTVSGGSISSSNYYWDWIRQTPEKGLEWIGSIHYSGTSYYNPSLKSRVTISVDTSKNQFSLKLRSVTAADAAVYYCARQTSVYWYFDIWGHGTLVTVST VL: EIVLTQSPGTLSLSPGEGATLSCRASQSVRNNYLAWYQQKPGQAPRLLIYGASSRAIGIPDRFSGSGSGTDFTLTISRLEPKDFVVYYCQQYGGSLFTFGPGTKVDIK
5 | 1 | 6 | 5 | H1H8900P (antibody, V domains shown, H1H Fc prefix (human Fc)) VH: QVQLVESGGGVVQPGRSLRLSCVASGFTFSSYGMHWVRQAPGKGLEWVAVISFDGSNKYYADSVKGRFTISRDNSKNTLYLQMNSLRPADTAVYYCAKDRSNYYYFGMDVWGQGTTVTVSS VL: DIVMTQTPLSLPVTPGEPASISCRSSQSLLDSDDGNTYLDWYLQKPGQSPQLLIYTLSYRASGVPDRFSGSGSGTDFTLKISRVEAEDVGVYYCMQRIEFPLTFGGGTKVEIK
6 | 4 | 4 | 5 | H4H8870P (antibody, V domains shown, human IgG4 Fc (H4H prefix)) VH: EVQLVESGGGVVRPGGSLRLSCAASGFKFDVYGMSWVRQLPGKGLEWVSGISWTGGSSGYADSVKGRFTISRDNGKKSLYLQMNSLRAEDTALYYCTREEDYWGQGTLVTVSS VL: not shown
